# Assay results: US20250145701A1 (REMEGEN SHANGHAI, published 2025)
# Legend:
# [1] = biological target: T1, human VEGF (ACRO, His tag) (human, UniProt P15692-4 27-191, limits assumed); experiment: ELISA, human VEGF-His coated at 50 ng/ml, anti-human IgG Fc detection, OD450
# T1 construct: Bought protein; not shown: His tag
# [2] = biological target: VEGF (species and construct not stated); experiment: cell-based or functional assay
# [3] = biological target: T2, human PD-1 (ACRO, His tag) (human, UniProt Q15116 25-167); experiment: ELISA, human PD-1-His coated at 1 ug/mL, anti-human IgG Fc detection, OD450
# T2 construct: Bought protein; not shown: His tag
# Procedure: The binding of the antibody to human PD-1 was detected by ELISA. 1 μg/mL human PD-1 (ACRO, His tag) was coated on an ELISA plate overnight and blocked. Subsequently, the plate was added with gradient dilutions of the bispecific antibody and the control antibody, incubated and washed. Then, the plate was added with HRP-labeled anti-human IgG Fc secondary antibody, incubated and washed. After TMB solution was added for color development, the OD450 absorbance value was read on a microplate reader (see Table 12). […] Subsequently, the plate was added with gradient dilutions of the sample to be tested and the control antibody, incubated and washed. Then, the plated was added with HRP-labeled anti-human IgG Fc secondary antibody, incubated and washed. After TMB solution was added for color development, the OD450 absorbance value was read on a microplate reader (see Table 13). […] (The control substances were all obtained by in-house expression and purification)
# [4] = biological target: T3, monkey PD-1 (ACRO, His tag) (monkey, UniProt B0LAJ3 25-170); experiment: ELISA, monkey PD-1-His coated at 1 ug/mL, anti-human IgG Fc detection, OD450
# T3 construct: Bought protein
# Procedure: The binding of candidate molecules and competitor to antigens of different species was detected by ELISA. […] The binding of antibodies to monkey PD-1 was detected by ELISA. An ELISA plate was coated with 1 μg/mL monkey PD-1 (ACRO, His tag) overnight and blocked. Subsequently, the plate was added with gradient dilutions of the sample to be tested and the control antibody, incubated and washed. Then, the plate was added with HRP-labeled anti-human IgG Fc secondary antibody, incubated and washed. After TMB solution was added for color development, the OD450 absorbance value was read on a microplate reader (see Table 15).
# [5] = biological target: T2, human PD-1 (ACRO, His tag); experiment: bridging ELISA: human PD-1-His coated at 1 ug/mL, antibody, then biotinylated human VEGF at 50 ng/ml and streptavidin-HRP, OD450
# Procedure: The order of the binding to VEGF and PD-1 was changed for dual ELISA detection. A 96-well ELISA plate was coated with 1 μg/mL human PD-1 (ACRO, His tag) overnight, washed and blocked for 1 hour. […] TMB solution was added for color development, and the OD450 nm absorbance value was read on a microplate reader.
# T2 sequence (Q15116 25-167 limits assumed): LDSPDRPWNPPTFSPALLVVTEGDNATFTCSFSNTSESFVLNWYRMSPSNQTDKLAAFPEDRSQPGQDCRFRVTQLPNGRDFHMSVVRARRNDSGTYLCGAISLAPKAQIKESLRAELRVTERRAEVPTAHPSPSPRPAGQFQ
# T1 sequence (P15692 other isoform, or with tags, fused parts or gaps limits assumed): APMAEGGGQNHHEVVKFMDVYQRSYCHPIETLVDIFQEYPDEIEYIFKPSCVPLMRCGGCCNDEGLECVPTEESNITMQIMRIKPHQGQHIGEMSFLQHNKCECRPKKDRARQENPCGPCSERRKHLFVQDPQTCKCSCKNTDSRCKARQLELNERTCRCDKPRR
# Sequence of VEGF (species and construct not stated) (P15692 whole entry): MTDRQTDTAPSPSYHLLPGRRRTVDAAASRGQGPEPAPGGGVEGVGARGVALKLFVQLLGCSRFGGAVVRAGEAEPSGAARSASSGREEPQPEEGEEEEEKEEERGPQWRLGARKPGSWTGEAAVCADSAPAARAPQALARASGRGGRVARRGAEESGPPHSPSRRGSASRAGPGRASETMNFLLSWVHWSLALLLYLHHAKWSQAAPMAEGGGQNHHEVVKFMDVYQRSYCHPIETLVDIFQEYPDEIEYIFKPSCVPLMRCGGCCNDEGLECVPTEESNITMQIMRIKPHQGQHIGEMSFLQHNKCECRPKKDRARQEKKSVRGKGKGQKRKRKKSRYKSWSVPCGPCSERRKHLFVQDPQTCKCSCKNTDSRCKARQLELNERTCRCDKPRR
# T3 sequence (B0LAJ3 entry or part of it limits assumed, form in doubt): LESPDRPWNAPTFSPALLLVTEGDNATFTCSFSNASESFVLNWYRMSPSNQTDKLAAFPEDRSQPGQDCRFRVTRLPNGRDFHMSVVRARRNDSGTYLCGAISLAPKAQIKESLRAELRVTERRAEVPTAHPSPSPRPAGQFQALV
TOP OD [1] [OD],maximum inhibition rate of HUVEC proliferation [2] [%],TOP OD [3] [OD],TOP OD [4] [OD],TOP OD [5] [OD],Binder
3.09,–,–,–,–,"Strain #48 VHH (Fc fusion, Humanized variant of #6 (Q1E+Q5L+A49S+N58Y+D65G+D74S+V(82B)S+K83R+P84A+M89V+Q108L, Kabat); not shown: A printed molecular weight of 76.46 kD and detection by anti-human IgG Fc p) EVQLLESGGGLVQPGGSLRLSCAASGFTFSTSTMSWYRQAPGKERELVSFITSAGATTYYADSVKGRFTMSRDNSKNTVYLQMNSLRAEDTAVYYCRALVTLWNVYWGQGTLVTVSS"
1.75,~60,2.58,3.38,3.65,"#16 bispecific antibody targeting PD-1 and VEGF (bispecific antibody, human IgG1, kappa, Valence is 2+2) heavy: QVQLVQSGVEVKKPGASVKVSCKASGYTFTNYYMYWVRQAPGQGLEWMGGINPSNGGTNFNEKFKNRVTLTTDSSTTTAYMELKSLQFDDTAVYYCARRDYRFDMGFDYWGQGTTVTVSSASTKGPSVFPLAPSSKSTSGGTAALGCLVKDYFPEPVTVSWNSGALTSGVHTFPAVLQSSGLYSLSSVVTVPSSSLGTQTYICNVNHKPSNTKVDKKVEPKSCDKTHTCPPCPAPEAEGAPSVFLFPPKPKDTLMISRTPEVTCVVVDVSHEDPEVKFNWYVDGVEVHNAKTKPREEQYNSTYRVVSVLTVLHQDWLNGKEYKCKVSNKALPSSIEKTISKAKGQPREPQVYTLPPSREEMTKNQVSLTCLVKGFYPSDIAVEWESNGQPENNYKTTPPVLDSDGSFFLYSKLTVDKSRWQQGNVFSCSVMHEALHNHYTQKSLSLSPGEVQLLESGGGLVQPGGSLRLSCAASGFTFSTSTMSWYRQAPGKERELVSFITSAGATTYYADSVKGRFTMSRDNSKNTVYLQMNSLRAEDTAVYYCRALVTLWNVYWGQGTLVTVSS light: EIVLTQSPATLSLSPGERATLSCRASKGVSTSGYSYLHWYQQKPGQAPRLLIYLASYLESGVPARFSGSGSGTDFTLTISSLEPEDFAVYYCQHSRDLPLTFGGGTKVEIKRTVAAPSVFIFPPSDEQLKSGTASVVCLLNNFYPREAKVQWKVDNALQSGNSQESVTEQDSKDSTYSLSSTLTLSKADYEKHKVYACEVTHQGLSSPVTKSFNRGEC"
